Test results as given in PMC11564547, “An interaction network of inner centriole proteins organised by POC1A-POC1B heterodimer crosslinks ensures centriolar integrity” (Nature Communications, 2024).

B1: POC5-HA-TEV-2xFLAG (wild type POC5 of the POC5-Centrin2 complex from insect cells) (natural protein, human, UniProt Q8NA72 1-575, looked up)
chain: MSSDEEKYSLPVVQNDSSRGSSVSSNLQEEYEELLHYAIVTPNIEPCASQSSHPKGELVPDVRISTIHDILHSQGNNSEVRETAIEVGKGCDFHISSHSKTDESSPVLSPRKPSHPVMDFFSSHLLADSSSPATNSSHTDAHEILVSDFLVSDENLQKMENVLDLWSSGLKTNIISELSKWRLNFIDWHRMEMRKEKEKHAAHLKQLCNQINELKELQKTFEISIGRKDEVISSLSHAIGKQKEKIELMRTFFHWRIGHVRARQDVYEGKLADQYYQRTLLKKVWKVWRSVVQKQWKDVVERACQARAEEVCIQISNDYEAKVAMLSGALENAKAEIQRMQHEKEHFEDSMKKAFMRGVCALNLEAMTIFQNRNDAGIDSTNNKKEEYGPGVQGKEHSAHLDPSAPPMPLPVTSPLLPSPPAAVGGASATAVPSAASMTSTRAASASSVHVPVSALGAGSAATAASEEMYVPRVVTSAQQKAGRTITARITGRCDFASKNRISSSLAIMGVSPPMSSVVVEKHHPVTVQTIPQATAAKYPRTIHPESSTSASRSLGTRSAHTQSLTSVHSIKVVD
notes: POC5, human; cDNA from SinoBiological; No TEV cleavage is described; also called POC5-TEV-2xFLAG; full-length POC5; not shown: 2xFLAG (after a TEV site), C-terminal, kept

Legend:
[1] = molecular target: the molecule itself; test: mass photometry; purified POC5-Centrin2 complex (co-expressed in insect cells, FLAG affinity and SEC); 1 µl of 400 nM protein in 19 µl SEC buffer (50 mM Tris pH 7.5, 150 mM NaCl, 1 mM MgCl2); Refeyn TwoMP
[2] = molecular target: B1; test: as above; settings: both partners purified
[3] = molecular target: the molecule itself; test: negative stain EM; purified POC5-Centrin2 complexes (co-expressed in insect cells, FLAG affinity and SEC); 3% uranyl acetate; 2D classification and low-resolution 3D reconstruction

B1
stoichiometry N [1]: 4

B2: Centrin2 (natural protein, human, UniProt P41208 1-172, looked up)
chain: MASNFKKANMASSSQRKRMSPKPELTEEQKQEIREAFDLFDADGTGTIDVKELKVAMRALGFEPKKEEIKKMISEIDKEGTGKMNFGDFLTVMTQKMSEKDTKEEILKAFKLFDDDETGKISFKNLKRVAKELGENLTDEELQEMIDEADRDGDGEVSEQEFLRIMKKTSLY
notes: Centrin2 (CETN2), human; amplified and cloned into pACEBac1; also called CETN2; CEN2; source: Sf21 insect cells (MultiBac baculovirus), co-expressed with POC5-TEV-2xFLAG, co-purified (anti-FLAG beads, SEC)
stoichiometry N [2]: ~6 Centrin2 molecules per POC5 tetramer

B3: POC5^Δ153-184-TEV-2xFLAG (of the POC5^Δ153-184-Centrin2 complex from insect cells) (natural protein, human, UniProt Q8NA72 1-575, looked up)
chain: MSSDEEKYSLPVVQNDSSRGSSVSSNLQEEYEELLHYAIVTPNIEPCASQSSHPKGELVPDVRISTIHDILHSQGNNSEVRETAIEVGKGCDFHISSHSKTDESSPVLSPRKPSHPVMDFFSSHLLADSSSPATNSSHTDAHEILVSDFLVSFIDWHRMEMRKEKEKHAAHLKQLCNQINELKELQKTFEISIGRKDEVISSLSHAIGKQKEKIELMRTFFHWRIGHVRARQDVYEGKLADQYYQRTLLKKVWKVWRSVVQKQWKDVVERACQARAEEVCIQISNDYEAKVAMLSGALENAKAEIQRMQHEKEHFEDSMKKAFMRGVCALNLEAMTIFQNRNDAGIDSTNNKKEEYGPGVQGKEHSAHLDPSAPPMPLPVTSPLLPSPPAAVGGASATAVPSAASMTSTRAASASSVHVPVSALGAGSAATAASEEMYVPRVVTSAQQKAGRTITARITGRCDFASKNRISSSLAIMGVSPPMSSVVVEKHHPVTVQTIPQATAAKYPRTIHPESSTSASRSLGTRSAHTQSLTSVHSIKVVD
notes: made with deletion primers from the POC5-TEV-2xFLAG CEN2 construct; source: insect cells (MultiBac baculovirus), co-expressed with Centrin2, purified (anti-FLAG beads, 3xFLAG peptide elution, SEC); not shown: 2xFLAG (after a TEV site), C-terminal, kept
stoichiometry N [3]: 2
